Test results: publication PMC7264293, “Multi-site-mediated entwining of the linear WIR-motif around WIPI β-propellers for autophagy” (Nature Communications, 2020)
Changes are numbered by the printed parent chain. Numbers in names are those of the source.

B1: GB1-tagged ATG2A short fragment (1374-1404), the WIR-peptide (peptide, UniProt Q2TAZ0 1374-1404, looked up)
chain: PRDGEPVVTQLHPGPIVVRDGYFSRPIGSTD
notes: human ATG2A residues 1374-1404; In the crystal (PDB 6KLR) the same stretch stood fused to the N-terminus of WIPI3-Δloop without the GB1 tag; source: E. coli BL21(DE3), purified (Ni2+-Sepharose, size-exclusion chromatography), tag not cleaved
B2: GB1-tagged WIR-peptide V1380A (peptide, UniProt Q2TAZ0 1374-1404, looked up)
chain: B1 chain with V7A
notes: human ATG2A residues 1374-1404 with V1380A; source: E. coli BL21(DE3), purified (Ni2+-Sepharose, size-exclusion chromatography), tag not cleaved
B3: GB1-tagged WIR-peptide T1382A (peptide, UniProt Q2TAZ0 1374-1404, looked up)
chain: B1 chain with T9A
notes: human ATG2A residues 1374-1404 with T1382A; source: E. coli BL21(DE3), purified (Ni2+-Sepharose, size-exclusion chromatography), tag not cleaved
B4: GB1-tagged WIR-peptide T1382Q (peptide, UniProt Q2TAZ0 1374-1404, looked up)
chain: B1 chain with T9Q
notes: human ATG2A residues 1374-1404 with T1382Q; source: E. coli BL21(DE3), purified (Ni2+-Sepharose, size-exclusion chromatography), tag not cleaved
B5: GB1-tagged WIR-peptide V1380Q (peptide, UniProt Q2TAZ0 1374-1404, looked up)
chain: B1 chain with V7Q
notes: human ATG2A residues 1374-1404 with V1380Q; source: E. coli BL21(DE3), purified (Ni2+-Sepharose, size-exclusion chromatography), tag not cleaved
B6: GB1-tagged ATG2A long fragment (1358-1404) (domain or fragment, human, UniProt Q2TAZ0 1358-1404, looked up)
chain: DSDEFCILDAPGLGIPPRDGEPVVTQLHPGPIVVRDGYFSRPIGSTD
notes: human ATG2A residues 1358-1404; source: E. coli BL21(DE3), purified (Ni2+-Sepharose, size-exclusion chromatography), tag not cleaved

Tests used:
Test in all cases: ITC; WIPI3 proteins in the sample cell, GB1-tagged ATG2A fragments in the syringe; 25 °C; 50 mM Tris-HCl pH 8.0, 100 mM NaCl, 1 mM EDTA, 1 mM DTT; model of one binding site
Conditions in all cases: both partners purified
WIPI3-Δloop = target: T1, WIPI3-Δloop (human, UniProt Q5MNZ6 1-344, Blade 2 B-C loop (75-80) deleted | Blade 6 C-D loop (264-281) deleted)
T1 construct: human WIPI3 with deletions of the Blade 2 B-C loop (75-80) and the Blade 6 C-D loop (264-281); also called loop-deletion mutant of WIPI3; source: E. coli BL21(DE3), purified (Ni2+-Sepharose, size-exclusion chromatography)

[1] = target: T2, WIPI3 (full-length, wild-type) (human, UniProt Q5MNZ6 1-344)
T2 construct: human WIPI3, full length; also called wild-type WIPI3; full-length WIPI3; source: E. coli BL21(DE3), purified (Ni2+-Sepharose, size-exclusion chromatography)

Hsv2 = Hsv2 (yeast, UniProt P50079 1-448)
Chain of Hsv2 (P50079 whole entry): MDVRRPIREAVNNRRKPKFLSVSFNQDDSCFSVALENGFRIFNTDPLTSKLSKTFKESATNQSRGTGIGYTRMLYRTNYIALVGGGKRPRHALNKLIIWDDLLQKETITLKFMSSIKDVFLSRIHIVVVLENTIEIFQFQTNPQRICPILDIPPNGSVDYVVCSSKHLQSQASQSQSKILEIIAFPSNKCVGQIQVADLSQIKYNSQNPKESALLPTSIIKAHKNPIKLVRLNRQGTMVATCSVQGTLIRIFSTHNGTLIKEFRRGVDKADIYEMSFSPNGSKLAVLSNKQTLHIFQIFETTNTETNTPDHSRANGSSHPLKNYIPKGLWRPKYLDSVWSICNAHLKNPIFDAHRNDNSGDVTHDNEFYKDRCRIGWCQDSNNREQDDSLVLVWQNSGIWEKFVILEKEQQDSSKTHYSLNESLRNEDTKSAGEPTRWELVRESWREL

T1 sequence (Q5MNZ6 other isoform, or with tags, fused parts or gaps with the stated changes): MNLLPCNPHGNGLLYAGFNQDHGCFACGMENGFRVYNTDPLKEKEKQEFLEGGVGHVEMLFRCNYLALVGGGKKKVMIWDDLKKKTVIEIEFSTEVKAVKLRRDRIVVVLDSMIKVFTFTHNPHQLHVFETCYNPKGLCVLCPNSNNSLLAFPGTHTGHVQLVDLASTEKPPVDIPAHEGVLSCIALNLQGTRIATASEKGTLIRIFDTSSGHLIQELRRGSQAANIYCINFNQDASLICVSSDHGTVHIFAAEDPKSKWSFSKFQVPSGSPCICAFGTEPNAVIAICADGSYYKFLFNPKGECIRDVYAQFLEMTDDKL
T2 sequence (Q5MNZ6 whole entry): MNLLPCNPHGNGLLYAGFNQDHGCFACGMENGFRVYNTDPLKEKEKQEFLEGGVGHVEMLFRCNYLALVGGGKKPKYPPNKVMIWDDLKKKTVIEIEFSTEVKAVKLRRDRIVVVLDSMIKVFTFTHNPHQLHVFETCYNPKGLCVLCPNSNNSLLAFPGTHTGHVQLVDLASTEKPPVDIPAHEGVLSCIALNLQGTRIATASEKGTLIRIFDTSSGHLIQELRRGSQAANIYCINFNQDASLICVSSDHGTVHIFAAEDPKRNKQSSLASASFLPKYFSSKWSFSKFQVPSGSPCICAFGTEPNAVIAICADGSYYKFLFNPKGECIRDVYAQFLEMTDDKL

| Binder | Kd (WIPI3-Δloop) [µM] | Kd [1] [µM] | binding result (WIPI3-Δloop) | also measured |
| --- | --- | --- | --- | --- |
| B1 | 6.4 ± 0.7 | 8.7 ± 0.1 | – | stoichiometry N (WIPI3-Δloop): 1; Kd (Hsv2): 21.5 ± 2 µM |
| B2 | – | – | binds | – |
| B3 | – | – | binds | – |
| B4 | – | – | binds | – |
| B5 | – | – | binds | – |
| B6 | 6.3 ± 0.2 | 8.6 ± 0.1 | – | – |
